Data from article PMC6205950, “4-Chlorophenol Oxidation Depends on the Activation of an AraC-Type Transcriptional Regulator, CphR, in Rhodococcus sp. Strain YH-5B” (Frontiers in Microbiology, 2018).

Key:
Assay in all cases: purified protein
Oc1ccc(Cl)cc1 = conditions: 200 μM NADH, 25 μM FAD, 50 mM phosphate pH 7.5, text prints 8.7 ± 1.1
Oc1ccccc1 = conditions: 200 μM NADH, 25 μM FAD, 50 mM phosphate pH 7.5
O=[N+]([O-])c1cccc(O)c1 = conditions: 200 μM NADH, 25 μM FAD, 50 mM phosphate pH 7.5

Which results are given for “two-component 4-CP monooxygenase (H6-CphA1 and H6-CphA2) (Rhodococcus sp. (in: high G+C Gram-positive bacteria))”?
Km (Oc1ccc(Cl)cc1): 8.7 ± 1.2 µM; kcat (Oc1ccc(Cl)cc1): 0.0103 ± 0.00067 s⁻¹; Km (Oc1ccccc1): 9.6 ± 0.9 µM; Km (O=[N+]([O-])c1cccc(O)c1): 63.2 ± 7.7 µM
